The values below come from publication PMC5924911.

The target of one test is NaV1.4 p.R222W channel (UniProt P35499).
A further test addresses NaV1.4 p.R222G channel (UniProt P35499).
Test [1] concerns the target VSD-I of human NaV1.4 (residues L114–S246) (human) (UniProt P35499). The test can be described thus: NMR titration.

Broadly, the Kd is the concentration at which binding is half-saturated. Read a low Kd as a tighter complex. Regarding “Hm-3 toxin from the crab spider Heriaeus melloteei (peptide)”, the percent of guanidinium-enhanced IGP suppressed by 10 μM Hm-3 at −80 mV, oocytes with NaV1.4 p.R222W channel was 67%; with NaV1.4 p.R222G channel, 64%. In test [1], this substance came in with a Kd of 6.2 µM.
